This data set deals with the molecule itself. Nature of the data set: SEC; 1 mg of ntcNDCBE on Superdex 200 10/300 GL; eluted at 14.2 mL, compared with molecular weight standards.

One may read the stoichiometry N as a count of units in the complex or per binding partner.

B1: truncated (ΔVR1) N-terminal cytoplasmic domain of human sodium-driven chloride/bicarbonate exchanger NDCBE-D (domain or fragment, UniProt Q2Y0W8-4 40-344, looked up)
chain: DTPSQRVQFILGTEEDEEHVPHELFTELDEICMKEGEDAEWKETARWLKFEEDVEDGGERWSKPYVATLSLHSLFELRSCLINGTVLLDMHANSIEEISDLILDQQELSSDLNDSMRVKVREALLKKHHHQNEKKRNNLIPIVRSFAEVGKKQSDPHLMDKHGQTVSPQSVPTTNLEVKNGVNCEHSPVDLSKVDLHFMKKIPTGAEASNVLVGEVDILDRPIVAFVRLSPAVLLSGLTEVPIPTRFLFILLGPVGKGQQYHEIGRSMATIMTDEIFHDVAYKAKERDDLLAGIDEFLDQVTVLP
notes: human NDCBE (SLC4A8) isoform D, N-terminal cytoplasmic core domain, amino acids 40-344 (made by mutagenesis from the 40-425 construct); numbers count on: isoform D (Q2Y0W8-4); Forms a homodimer in the crystal and in solution; Codon-optimised gene in pET-M11; His tag removed with TEV protease; also called ntcNDCBE; regulatory N-terminal domain of human NDCBE; source: E. coli BL21 Gold, purified …
Take B1: the “stoichiometry N” value worked out at 2.

For the origin of these results see article PMC5608694, “The crystal structure of the regulatory domain of the human sodium-driven chloride/bicarbonate exchanger” (Scientific Reports, 2017).
